Measurements: publication PMC9089796

Biological target: His6-tagged SRC SH3SH2 (residues 84-251) (human) (UniProt P12931)
Assay: SPR; His6-SRC SH3SH2 captured on Ni-NTA dextran chip (NiD200M); PTP4A1 injected for 60 seconds at 50 μL/min; 25°C; 20 mM Tris pH 8.0, 250 mM NaCl, 0.05% Tween 20; single injections fit with a 1-to-1 model

Kd: 1500 nM
Substance: oxidized PTP4A1 (residues 1-160) for SPR and NMR (from UniProt Q93096 1-160) (domain or fragment)
